# Test: melting temperature; melt of duplexes
# Details: sodium 0.0675 M; strand 1 µM
substance,measurement,value
CGACGTGCGCGATGTGCTG+CAGCACATATAGCACGTCG ((((((((...((((((((+))))))))...)))))))),Tm,51.8 °C
CGACGTGCCTCATGTGCTG+CAGCACATTAGGCACGTCG ((((((((((.((((((((+)))))))).)))))))))),Tm,56.3 °C
CGACGTGCTCTATGTGCTG+CAGCACATATAGCACGTCG (((((((((.(((((((((+))))))))).))))))))),Tm,54.3 °C
CGACGTGCAGGATGTGCTG+CAGCACATGGCGCACGTCG ((((((((...((((((((+))))))))...)))))))),Tm,49.9 °C
CGACGTGCATAATGTGCTG+CAGCACATCCGGCACGTCG ((((((((...((((((((+))))))))...)))))))),Tm,48.3 °C
CGACGTGCAGTATGTGCTG+CAGCACATCGAGCACGTCG ((((((((...((((((((+))))))))...)))))))),Tm,50.1 °C
CGACGTGCCCAATGTGCTG+CAGCACATTCCGCACGTCG ((((((((..(((((((((+)))))))))..)))))))),Tm,49.3 °C
CGACGTGCTTAATGTGCTG+CAGCACATTTGGCACGTCG ((((((((..(((((((((+)))))))))..)))))))),Tm,53.4 °C
CGACGTGCTGCATGTGCTG+CAGCACATGTAGCACGTCG (((((((((.(((((((((+))))))))).))))))))),Tm,60.4 °C
CGACGTGCAGGATGTGCTG+CAGCACATTCGGCACGTCG ((((((((.(.((((((((+)))))))).).)))))))),Tm,56.2 °C
CGACGTGCCTGATGTGCTG+CAGCACATGACGCACGTCG ((((((((.(.((((((((+)))))))).).)))))))),Tm,44.5 °C
CGACGTGCTCAATGTGCTG+CAGCACATGACGCACGTCG ((((((((...((((((((+))))))))...)))))))),Tm,48.7 °C
CGACGTGCTTGATGTGCTG+CAGCACATACGGCACGTCG ((((((((...((((((((+))))))))...)))))))),Tm,49.2 °C
CGACGTGCGATATGTGCTG+CAGCACATAATGCACGTCG ((((((((..(((((((((+)))))))))..)))))))),Tm,54 °C
CGACGTGCGGAATGTGCTG+CAGCACATCGTGCACGTCG ((((((((...((((((((+))))))))...)))))))),Tm,46.7 °C
CGACGTGCGCGATGTGCTG+CAGCACATTCGGCACGTCG ((((((((...((((((((+))))))))...)))))))),Tm,53.2 °C
CGACGTGCATAATGTGCTG+CAGCACATAGAGCACGTCG ((((((((...((((((((+))))))))...)))))))),Tm,48.7 °C
CGACGTGCTAGATGTGCTG+CAGCACATAACGCACGTCG ((((((((...((((((((+))))))))...)))))))),Tm,49.9 °C
CGACGTGCGGCATGTGCTG+CAGCACATCGAGCACGTCG ((((((((...((((((((+))))))))...)))))))),Tm,53.6 °C
CGACGTGCTGAATGTGCTG+CAGCACATCCAGCACGTCG ((((((((((.((((((((+)))))))).)))))))))),Tm,57.6 °C
CGACGTGCGCAATGTGCTG+CAGCACATTGTGCACGTCG ((((((((.((((((((((+)))))))))).)))))))),Tm,59.9 °C
CGACGTGCGACATGTGCTG+CAGCACATTCTGCACGTCG ((((((((...((((((((+))))))))...)))))))),Tm,51.3 °C
CGACGTGCTCCATGTGCTG+CAGCACATCAGGCACGTCG ((((((((...((((((((+))))))))...)))))))),Tm,48.6 °C
CGACGTGCATGATGTGCTG+CAGCACATATTGCACGTCG (((((((((..((((((((+))))))))..))))))))),Tm,52.3 °C
CGACGTGCGCGATGTGCTG+CAGCACATTGCGCACGTCG ((((((((((.((((((((+)))))))).)))))))))),Tm,63.5 °C
CGACGTGCTCTATGTGCTG+CAGCACATATTGCACGTCG ((((((((..(((((((((+)))))))))..)))))))),Tm,50.9 °C
CGACGTGCCCGATGTGCTG+CAGCACATATCGCACGTCG ((((((((...((((((((+))))))))...)))))))),Tm,47.2 °C
CGACGTGCTCTATGTGCTG+CAGCACATTAAGCACGTCG (((((((((..((((((((+))))))))..))))))))),Tm,51.1 °C
CGACGTGCTTTATGTGCTG+CAGCACATTTCGCACGTCG ((((((((...((((((((+))))))))...)))))))),Tm,47.7 °C
CGACGTGCGTCATGTGCTG+CAGCACATCCAGCACGTCG ((((((((...((((((((+))))))))...)))))))),Tm,50.7 °C
CGACGTGCGCTATGTGCTG+CAGCACATGCTGCACGTCG ((((((((...((((((((+))))))))...)))))))),Tm,51.5 °C
CGACGTGCTAAATGTGCTG+CAGCACATAACGCACGTCG ((((((((...((((((((+))))))))...)))))))),Tm,50 °C
CGACGTGCGGCATGTGCTG+CAGCACATCGGGCACGTCG ((((((((...((((((((+))))))))...)))))))),Tm,49.6 °C
CGACGTGCTGTATGTGCTG+CAGCACATCTCGCACGTCG ((((((((...((((((((+))))))))...)))))))),Tm,48.9 °C
CGACGTGCCCAATGTGCTG+CAGCACATCAGGCACGTCG (((((((((..((((((((+))))))))..))))))))),Tm,53.9 °C
CGACGTGCTAGATGTGCTG+CAGCACATTCGGCACGTCG ((((((((...((((((((+))))))))...)))))))),Tm,52.1 °C
